Measurements reported in US10400224B2, “Enantioselective modified esterase enzyme and method for the production thereof” (CORPORACIÓN CORPOGEN, priority 2014, dated 2019).

How the values were obtained:
[1] = Storage of the purified modified protein in Tris-HCl buffer; assay type: physicochemical; conditions: Tris-HCL buffer at 9.0 pH, 4° C.
Method: Thereafter, the product of the elution was concentrated in Amicon columns of 30 kDa. This concentration process was strictly necessary in order to be able to rule out the elution solution in which it was the protein and permit to leave it in a Tris-HCL buffer at a 9.0 pH, which permits stability to the modified protein. […] The purity of the protein was evaluated in a SDS-PAGE gel at 12% (p/v).

[2] = Kinetic resolution of phenyl ester of naproxen (1H-NMR, chiral HPLC); assay type: biochemical
Method: (§1) The enantioselectivity was evaluated by means of the kinetic resolution of the substrates phenyl ester naproxen and pNP ester naproxen. The procedure was the following (Chow et al., 2012):
(§2) i) 69.29 mL of a buffer phosphate solution (100 mM, pH 8.0) was mixed with 8 mL of DMSO-d6 and 2.64 mL of the stock solution of the substrate (10 mM in DMSO-d6). To this solution, it was added 200 μl of the enzyme to evaluate. The reaction was performed under continuous agitation at a temperature between 45° C. and 75° C. for 40 minutes.
(§3) ii) The reaction was stopped by adding a concentrated solution of HCl (pH 1.0). Immediately, the naproxen was extracted with MTBE twice with 20 ml of the solution.
(§4) iii) The extracted mixture of naproxen was dried under reduced pressure conditions. The transformation of this substrate was determined by means of MRI spectrographs (1H-NMR, Hydrogen-1 nuclear magnetic resonance) in which were compared the signals generated by the methyl groups from the naproxen and its corresponding esters.
(§5) iv) After measuring the samples containing the naproxen and the phenyl ester of naproxen, these samples were mixed with MTBE, 20 mL and extracted again with 20 mL, from an aqueous solution of NaHCO3.
(§6) v) The aqueous phase was acidified with HCl and it was extracted with MTBE, 20 ml. The extracted naproxen was derivatized to methyl ester through the addition of a solution of diazomethane 0.5 M in ethanol. The solvent was removed by a reduced pressure.
(§7) vi) The enantiomeric excess of the methyl ester ibuprofen was determined by means of chiral liquid high efficiency chromatography (HPLC—High performance liquid chromatography) (Dionex) using a Chiralcel ODH, under the following conditions • A mobile phase n-heptane: isopropanol with a ratio of 99:1 • A flow of 0.5 mL.min^1 • Reading at 225 nm.
(§8) vii) The retention time for the (S) and (R) enantiomers of methyl ester naproxen were of 22.84 and 19.39 minutes, respectively.

[3] = Kinetic resolution of pNP ester of naproxen (1H-NMR, chiral HPLC); assay type: biochemical
Method: as §1, §2, §3, §4, §5, §6, §7, §8
viii) The samples evaluated by NMR, underwent an additional test for determining the ee, by means of chiral HPLC with a CD detector (Jasco) using a Hyperclone ODS C18 column, under the following conditions: • A mobile phase of acetonitrile:water in a ratio of 80:20. • Flow of 0.5 mL.min^−1 • Reading of 220 nm
ix) The retention time for the p-NP ester of naproxen was of 3.83 minutes. The CD signal was measured at 280 nm.

[4] = Optimum temperature and pH of the modified enzyme (p-nitrophenyl ester assay); assay type: biochemical
Method: The activity of the modified enzyme was determined spectrophotometrically at 405 nm in a range of temperatures between 45 and 75° C., using p-nitro phenyl of other chains C6 to C10 (Sigma-Aldrich) as substrate. One unit of esterase activity was defined as the capacity of the enzyme to release 1 μmol min^−1 of p-nitrophenol under the essay conditions. The molar absorbance coefficient was of 16.900 M^−1 cm^−1. The mixture consisted of 448 μl of the Tris-HCl 50 mM buffer at 9.0 pH that contained 50 μl of p-nitrophenyl diluted in isopropanol and 2 μl of the solution stock of the protein. All the assays were made by triplicate and the average was calculated.
The optimum temperature of the modified enzyme was evaluated between 30 and 90° C. in buffer Tris HCl 50 mM (pH 9.0) exposing the enzyme to 30 minutes in each evaluated temperature (Suzuki et al., 2004, Park et al., 2006). […]
It was evaluated the activity of the enzyme by means of the p-nitrophenyl ester with some modifications, since for evaluating different pH values were used different buffer solutions, depending of the pH to evaluate: buffer acetate 50 mM (pH 5.0-6.0) buffer succinate (pH 4.0-5.5), MES (pH5.5-7.0). […] The protein was incubated for 15 minutes at a temperature higher than 45° C. and lower than 75° C. and then the quantification was made.

[5] = Kinetic resolution of racemic phenyl ester of ibuprofen (chiral HPLC); assay type: biochemical
Method: An evaluation was performed analytical scale to deter mine the kinetic resolution of phenyl ester substrates of ibuprofen and naproxen (Chow et al., 2012). The evaluation of the kinetic resolution for phenyl ester substrates of ibuprofen was developed in the following manner:
i) A solution with 17.32 Ml of buffer phosphate (100 mM, pH 8.0) was mixed with 2 ml. of DMSO and 0.66 mil of the stock solution of the substrate (10 mM in DMSO). To this solution it was added 100 μl of the enzyme to evaluate. The reaction was made with continuous agitation at a temperature from 45° C. and 75° C. for 80 minutes.
ii) The reaction was stopped by the addition of a concentrated solution of HCl (pH 1.0). Immediately thereafter, it was extracted the ibuprofen with methyl tertiary butyl ether (MTBE) twice with 20 ml of the solution.
iii) The ibuprofen was derivatized as a methyl ester after having added a solution of diazomethane 0.5 M in ethanol. The solvent was removed by means of reduction of pressure.
iv) The enantiomeric excess of the phenyl ester Ibuprofen and of the methyl ester ibuprofen was determined by means of chiral liquid high efficiency chromatography (HPLC—High performance liquid chromatography) (Dionex) using a Chiralpak IA column, under the following conditions: • A mobile phase n-heptane:isopropanol with a ratio of 99.8:0.2 • A flow of 0.5 mL.min^1 • Reading at 210 nm.
v) The retention time for the enantiomer (S) methyl ester ibuprofen was of 10:23 minutes, while that for the enantiomer (R) methyl ester ibuprofen was of 11:17 minutes. The retention time for the enantiomers (S) and (R) phenyl ester ibuprofen were of 16.32 and 18.07 respectively.

[6] = calculated by method of Kroutil et al, 1997

B1: 499EST: esterase enzyme of SEQ No. 2 from strain USBA-GBX-499 with a C-terminal tail of 5-10 histidine residues (protein, listed as Acidicaldus sp.)
chain: MPLDRHAEAVLEMIRQSGRPPYETLTPAEARGLYRQAREVLAPEPPPVAEVRDLSLPHPAGPALPTRLYRPQQGGAPLPLLVYFHGGGWVIGDLETHDVVCREIANRAGIGVLSIDYRLAPEHKFPAAVEDAFAATRWAAKEAPSLGFDPARLAVGGDSAGGNLAAVVSLLAREQGGPSIAFQLLIYPATDLGMTHPSHQRWAEGYLLTRPTMEWFRAHYLTDPTREIADWRVSPLRAPDLRGLPPAFVLTAEYDPLVDEGEDYAARLAAAGVPVATHRVPGMIHGFLTMGKAIPAANEALGLIAERLRAALA
modifications: C-terminal histidine tail; amino acid sequence of 499EST
[1]
  storage time: several months
[2]; 1H-RMN
  conversion: 52%
[2]; HPLC
  ee of naproxen product: 65%
[2]; phenyl ester of naproxen
  enantioselectivity E: 10
[3]; 1H-RMN
  conversion: 49%
[3]; HPLC
  ee of naproxen product: 31%
[3]; naproxen esters
  enantioselectivity lower for the pNP ester than for the phenyl ester: 5 times
[3]; pNP ester of naproxen
  enantioselectivity E: 2
[4]
  pH of optimum activity: 9.0
  temperature of optimum activity: 55 °C
[5]; [6]
  conversion c: 56%
  enantioselectivity E: 4
[5]; chiral HPLC
  ee of the substrate (phenyl ester of ibuprofen): 50%
[5]; chiral HPLC, product derivatized as methyl ester
  ee of the product: 40%
